According to US20230235075A1 (DYNAMICURE BIOTECHNOLOGY, published 2023):
Changes are numbered by the printed parent chain.

T1: Human CD93 on the cell surface (human CD93 expressing CHO cells; HUVEC, U937 and KG1a cells) (human, UniProt Q9NPY3 22-652)
T1 construct: whole, on cells; also called hCD93 CHO cells; CHO-hCD93
T1 sequence (looked up): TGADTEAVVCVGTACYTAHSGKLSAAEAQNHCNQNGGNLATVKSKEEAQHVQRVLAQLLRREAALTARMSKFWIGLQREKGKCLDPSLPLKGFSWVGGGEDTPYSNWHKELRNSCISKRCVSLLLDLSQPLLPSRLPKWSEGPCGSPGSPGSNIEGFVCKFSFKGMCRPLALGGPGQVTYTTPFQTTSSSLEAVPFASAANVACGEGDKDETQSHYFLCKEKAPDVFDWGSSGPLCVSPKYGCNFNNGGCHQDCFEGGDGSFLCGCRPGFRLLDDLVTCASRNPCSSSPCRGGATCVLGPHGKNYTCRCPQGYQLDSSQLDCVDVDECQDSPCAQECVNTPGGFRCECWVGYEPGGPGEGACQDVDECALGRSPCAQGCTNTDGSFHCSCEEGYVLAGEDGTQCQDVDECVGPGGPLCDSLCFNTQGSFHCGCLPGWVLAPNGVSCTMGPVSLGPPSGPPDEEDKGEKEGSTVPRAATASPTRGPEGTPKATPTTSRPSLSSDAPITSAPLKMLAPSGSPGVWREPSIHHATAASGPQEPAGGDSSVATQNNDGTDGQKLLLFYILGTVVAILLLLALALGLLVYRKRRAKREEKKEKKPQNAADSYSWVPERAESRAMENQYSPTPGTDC

T2: Human CD93 recombinant protein (Sino Biological Inc, Catalog #12589-H08H) (human, UniProt Q9NPY3 22-580, biotinylated with EZ-LINK NHS-PEG4 biotin in the Octet assays)
T2 construct: also called hCD93; His-tagged human CD93
T2 sequence (looked up): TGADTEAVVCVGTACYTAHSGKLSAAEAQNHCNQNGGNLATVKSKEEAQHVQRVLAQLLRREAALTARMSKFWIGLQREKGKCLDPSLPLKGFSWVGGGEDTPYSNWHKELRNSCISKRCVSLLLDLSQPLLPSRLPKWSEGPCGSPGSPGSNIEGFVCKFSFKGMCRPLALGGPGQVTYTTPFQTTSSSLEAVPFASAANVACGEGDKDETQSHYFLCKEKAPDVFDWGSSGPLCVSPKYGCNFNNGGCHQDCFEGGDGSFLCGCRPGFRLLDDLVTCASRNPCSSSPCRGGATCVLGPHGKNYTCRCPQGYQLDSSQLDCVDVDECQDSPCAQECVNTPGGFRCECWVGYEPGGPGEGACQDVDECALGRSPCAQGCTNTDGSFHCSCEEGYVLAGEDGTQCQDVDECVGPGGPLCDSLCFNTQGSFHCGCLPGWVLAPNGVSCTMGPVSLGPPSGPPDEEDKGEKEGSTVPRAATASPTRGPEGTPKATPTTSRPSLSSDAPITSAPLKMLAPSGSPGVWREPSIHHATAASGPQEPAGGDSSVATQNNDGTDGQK

B1: Humanized 17B10 H1L1 (antibody, mouse IgG1, V domains shown)
VH: QVQLVQSGAEVKKPGSSVKVSCKASGYAFSSYWLNWVRQAPGQGLEWFGRIYPGDGDTDYNGKFKGRVTLTADKSTSTAYMELSSLRSEDTAVYFCVRGDGYWAMDYWGQGTTVTVSS
VL: DIVMTQSPLSLPVTPGEPASISCRFSQSLLHSNGITYLYWYLQKPGQSPQLLIYQMSNLASGVPDRFSGSGSGTDFTLKISRVEAEDVGVYYCAQNLELPWTFGGGTKLEIK
notes: Chimeric Fc: mouse IgG1 CH2 and CH3 domains and human CH1 domains
B2: Humanized 17B10 H3L1 (antibody, mouse IgG1, V domains shown)
VH: QVQLVQSGPEVKKPGESLKISCKASGYAFSSYWLNWVRQMPGKGLEWMGRIYPGDGDTDYNGKFKGQVTISADKSSGTAYLQLSSLKASDTAVYFCVRGDGYWAMDYWGQGTLVTVSS
VL: B1 VL
B3: Humanized 17B10 H1L3 (antibody, mouse IgG1, V domains shown)
VH: B1 VH
VL: DIVMTQSPDSLAVSLGERATINCRFSKSLLHSNGITYLYWYQQKPGQPPKLLIYQMSNLASGVPDRFSGSGSGTDFTLTISSLQAEDVAVYYCAQNLELPWTFGGGTKLEIK
B4: Humanized 17B10 H1L2 (antibody, mouse IgG1, V domains shown)
VH: B1 VH
VL: B1 VL with S7T, Q55T
B5: Humanized 17B10 H2L1 (antibody, mouse IgG1, V domains shown)
VH: QVQLVQSGAEVVKSGASVKVSCKASGYAFSSYWLNWVRQAPGQGLEWFGRIYPGDGDTDYNGKFKGRVTLIRDTSTSTVYMELTSLTSEDTAVYYCVRGDGYWAMDYWGQGTLVTVSS
VL: B1 VL
B6: Humanized 17B10 H2L3 (antibody, mouse IgG1, V domains shown)
VH: B5 VH
VL: B3 VL
B7: Humanized 17B10 H3L2 (antibody, mouse IgG1, V domains shown)
VH: B2 VH
VL: B1 VL with S7T, Q55T
B8: 16B6 (antibody, V domains shown)
VH: QVQLQQSGPELVKPGASVKISCKASGYAFSRSWMNWVKQRPGKGLEWIGWIYPGDGDTNYNGKFKGKATLTADKSSSTAYMQLSSLTSEDSAAYFCARSATLPYWYFDVWGAGTTVTVSS
VL: DIKMTQSPSSMYASLGERVTITCKASQDIKSYLSWYQQKPWKSPKTLIYYATNLADGVPSRFSGSGSGQDYSLTISSLGSDDTATYYCLQHVESPWTFGGGTKLEIK
notes: Mouse hybridoma monoclonal antibody
B9: 5H9 (antibody, IgG2a, V domains shown)
VH: QVQLQQSGPDLVKPGASVKISCKASGYAFSTYWMNWVKQRPGKGLEWIGRIFPGDGDANYNGKFKGKATLTADKSSSTAYMQLSSLTSEDSAVYFCTRTGAAYDFDPFPYWGQGTLVTVSA
VL: DIVMTQAAFSNPVTLGTSASISCSSSKSLLHSNGVTYLYWYLQRPGQSPQLLIYRMSNLASGVPDRFSGSGSGTDFTLRISRVEAEDVGIYYCAQMLERPFTFGSGTKLEIK
notes: also called 5H9 mIgG2a
B10: 16G9 (antibody, V domains shown)
VH: EVQLQQSGPELVKPGASVKMSCKASGYTFTDYYMNWVKQSHGKSLEWIGRVNPNNGGKTYNQKFKGKATLTVDKSLSTAYMQLNSLTSEDSAVYYCARWRLRPVDYGMDYWGQGTSVTVSS
VL: DIVLTQSPASLAVSLGQRATISCRASQSVSTSSYSYMHWYQQKPGQPPKLLIKYASNLESGVPARFSGSGSGTDFTLNIHPVEEEDTATYYCQHSWEIPFTFGSGTKLEIK
notes: as for B8
B11: 19E12 (antibody, V domains shown)
VH: QVQLQQSGAELVRPGASVKLSCKASGYTFTDYEMHWVRQTPVHGLEWIGGIDPETGGTAYNQKFKGKATLTADKSSSTAYMELRSLTSEDSAVYYCTRGAWFAYWGQGTLVTVSA
VL: QAVVTQESALTTSPGETVTLTCRSSTGAVTTSNSANWVQEKPDHLFTGLIGGTNNRAPGVPARFSGSLIGDKAALTITGAQTEDEAIYFCALWYNNHFVFGGGTKLTVL
notes: as for B8
B12: 19B5 (antibody, V domains shown)
VH: DVNLVESGGGLVKLGGSLKLSCAASGFTFSNYYMSWVRQSPEKRLEWVATISNNGDSTYYLDTVKGRFTISRDSAENTLYLQMSSLISEDTAVYYCTRVGTGFTYWGQGTLVTVSA
VL: DIVLTQSPATLSVTPGDSVSLSCRASQSINNYLHWYQQRSHESPRLLIKFASQSISDIPSRFSGSGSGTDFTLSINSIETEDFGMYFCQQSNSWPLTFGAGTKLELK
notes: as for B8
B13: 20C7 (antibody, V domains shown)
VH: EVQLQQSGPELVNPGASVKMSCKASGYTFTAYVMHWVKQKPGQGLEWIGYIFPYNDGTEYNEKFKGKATLTSDKSSSTAYMELSSLTSEDSAVYYCARRTDGNPYTMDYWGQGTSVTVSS
VL: DIVMTQSHKFMSTSVGDRVSITCKASQDVSTAVAWYQQKPGQSPKLLIHSASYRYTGVPDRFTGRGSGTDFTFTISSVQAEDLAVYYCQQHYSTPFTFGSGTKLEIK
notes: as for B8
B14: 17E6 (antibody, V domains shown)
VH: B13 VH with N13K, A31S, M34I, F52N, N55S, G57Y, E59Q, Y95S, T100A, T106A
VL: B13 VL with I21T, A34V, H49Y, R65S, S76T
notes: as for B8
B15: 12H4 (antibody, V domains shown)
VH: EVQLQQSGPELVKPGASVKVSCKASGYTFTDYYIHWVKQRPGQGLEWIGEIYPGSDDAYYNEKFKGKATLTADKSSSTAYMQLSSLTSEDSAVYFCTRETTATAYWGQGTLVTVSA
VL: QIVLTQSPAIMSASPGEKVTITCSASSSVSLIYWFQQKPGTSPKLWIYSTSNLASGVPARFSGSGSGTSYSLTISRMEAEDAATYYCQQRSGYPPTFGGGTKLEIK
notes: as for B8
B16: 17A7 (antibody, V domains shown)
VH: B9 VH with D10E, A24G, A58T, N59D, N61D, S77N, T97A, D104E
VL: B9 VL with S26T, N33S, V35I, I90V
notes: as for B8

The binders below were run against T1, Human CD93 on the cell surface (human …) (assay: FACS, CHO cells overexpressing human CD93).

| binding result | Binder |
| --- | --- |
| binds | B1 |
| binds | B2 |
| binds | B3 |
| binds | B4 |
| binds | B5 |
| binds | B6 |
| binds | B7 |

These binders were tested against T2, Human CD93 recombinant protein (Sino …) (assay: Octet epitope binning on biotinylated human CD93, antibody 10 µg/ml).
Method: Anti-CD93 antibody epitope bins were determined using Octet QKe (Fortebio). Human CD93 recombinant protein (Sino Biological Inc, Catalog #12589-H08H) were biotinylated using EZ-LINK NHS-PEG4 biotin (Thermo Fisher Scientific). Streptavidin biosensors tips (Fortebio) were used to capture biotinylated human CD93 protein (300 seconds in 5 μg/ml). The baseline was stabilized for 60 seconds in 1× kinetics buffer (Fortebio) before primary anti-CD93 antibodies (10 μg/ml) were allowed to associate for 300 seconds with captured protein. A panel of secondary anti-CD93 antibodies (10 μg/ml) were then allowed to associate with the antigen and primary antibody complex for additional 300 seconds. Signals were recorded for each binding event and data analysis was performed on ForteBio Data Analysis HT 11.1 software.

| binding result | Binder |
| --- | --- |
| binds | B8 |
| binds | B9 |
| binds | B10 |
| binds | B11 |

These binders were tested against T1, Human CD93 on the cell surface (human …) (assay: summary table, column 'Binding' (assay not given)).

| binding result | Binder |
| --- | --- |
| binds | B8 |
| binds | B12 |
| binds | B13 |
| binds | B14 |
| binds | B15 |
| binds | B9 |
| binds | B16 |
| binds | B10 |
| binds | B11 |
